The test system of the experiment is trypsin. In words: Inhibition of trypsin-induced cleavage of fluorescent BODIPY FL casein (EnzChek protease assay kit). It is filed as biochemical. The source says: The procedure of Example 1 was independently repeated using the procyanidin-containing grape seed extract and STI, respectively, at 0.1% concentration. In addition, the procedure of Example 1 was repeated on the five individual monomer units typically found in OPC, at up to three different concentration levels.

B1: Lactoferrin: commonly used antioxidant (protein, UniProt P02788 20-710, looked up)
Lactotransferrin: GRRRSVQWCAVSQPEATKCFQWQRNMRKVRGPPVSCIKRDSPIQCIQAIAENRADAVTLDGGFIYEAGLAPYKLRPVAAEVYGTERQPRTHYYAVAVVKKGGSFQLNELQGLKSCHTGLRRTAGWNVPIGTLRPFLNWTGPPEPIEAAVARFFSASCVPGADKGQFPNLCRLCAGTGENKCAFSSQEPYFSYSGAFKCLRDGAGDVAFIRESTVFEDLSDEAERDEYELLCPDNTRKPVDKFKDCHLARVPSHAVVARSVNGKEDAIWNLLRQAQEKFGKDKSPKFQLFGSPSGQKDLLFKDSAIGFSRVPPRIDSGLYLGSGYFTAIQNLRKSEEEVAARRARVVWCAVGEQELRKCNQWSGLSEGSVTCSSASTTEDCIALVLKGEADAMSLDGGYVYTAGKCGLVPVLAENYKSQQSSDPDPNCVDRPVEGYLAVAVVRRSDTSLTWNSVKGKKSCHTAVDRTAGWNIPMGLLFNQTGSCKFDEYFSQSCAPGSDPRSNLCALCIGDEQGENKCVPNSNERYYGYTGAFRCLAENAGDVAFVKDVTVLQNTDGNNNEAWAKDLKLADFALLCLDGKRKPVTEARSCHLAMAPNHAVVSRMDKVERLKQVLLHQQAKFGRNGSDCPDKFCLFQSETKNLLFNDNTECLARLHGKTTYEKYLGPQYVAGITNLKKCSTSPLLEACEFLRK
As for B1, the “trypsin inhibition activity (in words)” value (at concentrations up to 0.1%) is “no trypsin inhibition activity”. The “% trypsin inhibition” value (concentration 0.001 % (w/w)) is recorded as −2%, the “% trypsin inhibition” value (concentration 0.01 % (w/w)) was −4% and the “% trypsin inhibition” value (concentration 0.1 % (w/w)) turned out to be 0%.

B2: STI: pure serine protease inhibitor (soybean trypsin inhibitor) from Sigma, used as positive control (protein, UniProt P01070 25-205, looked up)
Trypsin inhibitor A: DFVLDNEGNPLENGGTYYILSDITAFGGIRAAPTGNERCPLTVVQSRNELDKGIGTIISSPYRIRFIAEGHPLSLKFDSFAVIMLCVGIPTEWSVVEDLPEGPAVKIGENKDAMDGWFRLERVSDDEFNNYKLVFCPQQAEDDKCGDIGISIDHDDGTRRLVVSKNKPLVVQFQKLDKESL
Turning to B2, the “% trypsin inhibition” value reads like this: (Table 4, concentration (w/w) 0.1 %) 89%; (concentration 0.0005 % (w/w)) 17%; (concentration 0.001 % (w/w)) 30%; (concentration 0.0025 % (w/w)) 44%; (concentration 0.005 % (w/w)) 55%; (concentration 0.01 % (w/w)) 74%. The “% trypsin inhibition” value (concentration 0.025 % (w/w)) was 85%, the “% trypsin inhibition” value (concentration 0.05 % (w/w)) is on record as 87% and the “% trypsin inhibition” value (concentration 0.075 % (w/w)) is 63%.

The record behind these values is patent US20050175719A1, “Procyanidins for treatment and prevention of enzymatic irritation to the skin” (priority 2004, published 2005).
